Primed or numbered codes have the meaning given here. Ends that are not written are not given here. Cy5.5 = cyanine fluorophore coupled as NHS ester to the lysine side chain; Cy5.5″ = fluorophore Cy5.5, coupled as NHS ester to Lys side chain
B1: TLQ*-Cy5.5 (scrambled control peptide TLQWNQS linked through a GGGSK linker to Cy5.5) (peptide)
peptide: TLQWNQSGGGSK(Cy5.5″)-NH2
notes: Scrambled control of QQT*-Cy5.5; also called TQL*-Cy5.5
B2: QQT*-Cy5.5 (peptide QQTNWSL linked at its C-terminus through a GGGSK linker to the fluorophore Cy5.5) (peptide)
peptide: QQTNWSLGGGSK(Cy5.5)-NH2
notes: Linear monomer made by Fmoc solid-phase synthesis; m/z 1827.67; also called target peptide

What was measured:
[1] = target: human cMet on cells (HT29 human colorectal cancer cells; S114 cells; human colon tissue and organoids) (human) (UniProt P08581); assay: confocal microscopy, HT29 versus SW480 cells
Chain of human cMet on cells (HT29 human colorectal cancer cells; S114 cells; human colon tissue and organoids) (human) (P08581 25-1390): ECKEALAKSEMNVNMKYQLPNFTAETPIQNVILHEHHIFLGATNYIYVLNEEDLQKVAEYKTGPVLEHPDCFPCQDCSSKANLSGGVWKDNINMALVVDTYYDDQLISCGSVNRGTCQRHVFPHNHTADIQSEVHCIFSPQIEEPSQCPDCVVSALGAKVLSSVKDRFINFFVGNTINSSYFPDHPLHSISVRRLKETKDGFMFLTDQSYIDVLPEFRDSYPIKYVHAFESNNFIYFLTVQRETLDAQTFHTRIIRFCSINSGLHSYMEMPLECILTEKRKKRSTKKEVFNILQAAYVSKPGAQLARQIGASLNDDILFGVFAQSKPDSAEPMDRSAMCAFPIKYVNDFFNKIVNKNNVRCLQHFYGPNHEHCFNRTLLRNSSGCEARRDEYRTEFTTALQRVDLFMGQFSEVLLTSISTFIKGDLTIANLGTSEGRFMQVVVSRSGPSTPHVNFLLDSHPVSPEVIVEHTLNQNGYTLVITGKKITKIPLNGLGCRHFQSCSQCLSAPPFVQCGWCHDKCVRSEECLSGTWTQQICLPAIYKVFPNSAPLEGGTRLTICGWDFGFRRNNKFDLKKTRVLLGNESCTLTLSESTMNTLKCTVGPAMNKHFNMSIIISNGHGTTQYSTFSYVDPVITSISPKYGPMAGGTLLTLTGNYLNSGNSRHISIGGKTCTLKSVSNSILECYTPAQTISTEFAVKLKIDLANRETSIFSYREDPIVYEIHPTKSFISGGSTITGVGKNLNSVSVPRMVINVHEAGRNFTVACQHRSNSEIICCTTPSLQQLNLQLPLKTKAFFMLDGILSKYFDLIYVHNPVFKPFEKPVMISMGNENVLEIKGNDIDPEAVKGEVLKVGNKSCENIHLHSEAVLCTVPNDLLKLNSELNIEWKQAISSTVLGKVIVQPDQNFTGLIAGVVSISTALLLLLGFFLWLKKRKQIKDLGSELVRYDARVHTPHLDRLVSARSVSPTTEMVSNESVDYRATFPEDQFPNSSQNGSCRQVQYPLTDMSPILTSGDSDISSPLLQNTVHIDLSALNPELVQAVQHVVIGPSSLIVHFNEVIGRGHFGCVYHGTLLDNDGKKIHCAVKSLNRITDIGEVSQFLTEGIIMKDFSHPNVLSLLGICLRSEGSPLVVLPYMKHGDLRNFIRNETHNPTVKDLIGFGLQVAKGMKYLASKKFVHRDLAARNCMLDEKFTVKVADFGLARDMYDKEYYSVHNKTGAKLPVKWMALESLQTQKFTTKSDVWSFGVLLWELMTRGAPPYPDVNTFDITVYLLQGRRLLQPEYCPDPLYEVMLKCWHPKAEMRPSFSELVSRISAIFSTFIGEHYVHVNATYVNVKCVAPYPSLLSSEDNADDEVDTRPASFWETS

[2] = target: human cMet on cells (HT29 human colorectal cancer cells; S114 cells; human colon tissue and organoids) (human) (UniProt P08581); assay: confocal microscopy, HT29 cells with control or cMet siRNA
[3] = target: human cMet on cells (HT29 human colorectal cancer cells; S114 cells; human colon tissue and organoids) (human) (UniProt P08581); assay: confocal microscopy, S114 versus NIH3T3 cells
[4] = target: T1, human cMet on cells (HT29 human colorectal cancer cells; S114 cells; human colon tissue and organoids) (human, UniProt P08581 25-1390); assay: confocal microscopy, S114 versus NIH3T3 cells, 5 µM peptide
T1 construct: whole, on cells; also called mesenchymal-epithelial transition factor
T1 sequence (P08581 25-1390): as above
Description: (§1) FIG. 11. Peptide validation with mouse cells in vitro. […] Two-way ANOVA models were fit with terms for 6 conditions and 6 replicate slides on log-transformed data. Measurements were an average of 5 randomly chosen cells on 6 slides for each condition. […] An ANOVA model was fit to log-transformed data with terms for 6 conditions. There were 6 replicate slides per condition and 10 cells measured per slide.
(§2) HT29, SW480, S114 and NIH3T3 cells were inoculated in 12-well cell culture plates with circle glass coverslips to about 80% confluence. The cells were blocked with 1×PBS plus 2% BSA for 1 hour at 4° C., then were incubated with 5 μM peptides for 10 min at RT in the dark, washed thrice, and fixed with 4% PFA for 5 min, washed with 1×PBS, then mounted on glass slides with ProLong Gold reagent containing DAPI (Invitrogen, Waltham, Mass.).

[5] = target: T1, human cMet on cells (HT29 human …); assay: confocal microscopy, HT29 cells with control or cMet siRNA, 5 µM peptide
Description: FIG. 2. In vitro validation with cMet knockdown. […] Fluorescence intensities for D) peptide and E) antibody were reduced with HT29 knockdown cells transfected with sicMet-targeting siRNA. […] A two-way ANOVA model was fit with terms for 6 conditions and 6 replicate slides on log-transformed data. Measurements were an average of 5 randomly chosen cells on 6 slides for each condition.
(§3) HT29, SW480, S114 and NIH3T3 cells were inoculated in 12-well cell culture plates with circle glass coverslips to about 80% confluence. The cells were blocked with 1×PBS plus 2% BSA for 1 hour at 4° C., then were incubated with 5 μM peptides for 10 min at RT in the dark, washed thrice, and fixed with 4% PFA for 5 min, washed with 1×PBS, then mounted on glass slides with ProLong Gold reagent containing DAPI (Invitrogen, Waltham, Mass.). As positive control, after blocking with 2% BSA for 1 hour at 4° C., A 1:3000 dilution of primary monoclonal rabbit anti-cMet antibody (Cell Signaling Technology, #8198) was incubated with cells overnight at 4° C. […] Confocal fluorescence images were collected using a 63× oil-immersion objective (Leica SP5 Inverted 2-Photon FLIM Confocal). Fluorescence intensities from five cells in two independent images were quantified using custom Matlab (Mathworks) software.

[6] = target: T1, human cMet on cells (HT29 human …); assay: confocal microscopy, HT29 versus SW480 cells, 5 µM peptide
Procedure: FIG. 10. Peptide validation with human colorectal cancer cells in vitro. […] Two-way ANOVA models were fit with terms for 6 conditions and 6 replicate slides on log-transformed data. Measurements were an average of 5 randomly chosen cells on 6 slides for each condition.
as §3

[7] = target: T2, mouse cMet on colonocytes of CPC;Apc mouse colon (mouse, UniProt P16056 25-1379); assay: ex vivo NIR fluorescence imaging of excised CPC;Apc mouse colon
T2 construct: whole, on cells; Target in tissue staining; also called cMet (mouse colon adenoma / dysplasia)
T2 sequence (P16056 25-1379): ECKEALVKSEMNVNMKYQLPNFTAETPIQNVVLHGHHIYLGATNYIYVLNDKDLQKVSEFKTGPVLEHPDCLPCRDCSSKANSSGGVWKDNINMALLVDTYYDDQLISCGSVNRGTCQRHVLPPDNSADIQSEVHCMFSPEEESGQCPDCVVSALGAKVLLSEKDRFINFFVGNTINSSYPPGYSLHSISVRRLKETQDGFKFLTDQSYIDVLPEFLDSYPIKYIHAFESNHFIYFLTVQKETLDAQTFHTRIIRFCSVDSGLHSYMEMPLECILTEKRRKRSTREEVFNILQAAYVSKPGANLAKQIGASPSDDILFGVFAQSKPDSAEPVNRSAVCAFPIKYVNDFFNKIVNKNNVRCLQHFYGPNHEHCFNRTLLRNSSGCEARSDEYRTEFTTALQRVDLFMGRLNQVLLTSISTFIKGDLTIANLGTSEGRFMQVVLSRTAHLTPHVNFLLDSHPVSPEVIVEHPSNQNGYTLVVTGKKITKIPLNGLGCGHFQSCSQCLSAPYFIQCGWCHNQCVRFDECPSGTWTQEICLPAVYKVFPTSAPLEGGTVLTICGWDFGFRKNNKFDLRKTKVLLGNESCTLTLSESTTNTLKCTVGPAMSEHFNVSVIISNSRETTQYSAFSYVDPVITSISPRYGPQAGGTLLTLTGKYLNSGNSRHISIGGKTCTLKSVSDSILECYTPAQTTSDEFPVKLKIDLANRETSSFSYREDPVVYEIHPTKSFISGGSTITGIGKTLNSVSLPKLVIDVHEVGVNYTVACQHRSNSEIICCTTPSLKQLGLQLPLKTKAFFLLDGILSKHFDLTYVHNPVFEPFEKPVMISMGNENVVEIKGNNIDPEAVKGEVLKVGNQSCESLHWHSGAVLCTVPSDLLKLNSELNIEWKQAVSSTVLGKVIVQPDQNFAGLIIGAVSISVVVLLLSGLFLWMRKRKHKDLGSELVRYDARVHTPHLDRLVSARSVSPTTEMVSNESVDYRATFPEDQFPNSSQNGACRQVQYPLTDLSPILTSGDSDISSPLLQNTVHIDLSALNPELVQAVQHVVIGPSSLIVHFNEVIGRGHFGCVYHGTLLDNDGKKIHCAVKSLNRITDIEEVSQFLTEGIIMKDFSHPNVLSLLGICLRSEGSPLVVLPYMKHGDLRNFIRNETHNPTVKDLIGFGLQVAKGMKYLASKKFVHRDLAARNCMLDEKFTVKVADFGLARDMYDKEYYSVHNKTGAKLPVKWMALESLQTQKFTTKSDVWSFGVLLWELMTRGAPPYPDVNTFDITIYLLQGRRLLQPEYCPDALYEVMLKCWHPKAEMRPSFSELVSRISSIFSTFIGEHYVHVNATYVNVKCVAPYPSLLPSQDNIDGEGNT
Procedure: After imaging was completed, the mice were euthanized. The colon was resected and divided longitudinally, the colon was excised, flushed with PBS, and opened longitudinally for imaging with the NIR fluorescence imaging system (Pearl®, LI-COR Biosciences). Images were collected with […] resolution using λex=685 nm and λem=720 nm. Images were analyzed with custom software (Image Studio, Li-Cor Biosciences). The normal colon region with an equal area adjacent to the polyps was used to measure background. Prism software (v6.02, GraphPad) was used to plot data.
After imaging was completed, the CPC;Apc mice were euthanized, and the colon was excised and divided longitudinally to expose the mucosal surface for collection of macroscopic white light and fluorescence images, FIGS. 5 L,M and 13A, B. The polyp locations co-localized on white light and fluorescence images, FIG. 13C. […] Immunohistochemistry was performed with a known antibody to validate increased expression of cMet in mouse dysplasia, FIG. 13E, by comparison with normal colonic mucosa, FIG. 13F.

[8] = target: T1, human cMet on cells (HT29 human …); assay: confocal microscopy, S114 cells, reference TLQ*-Cy5.5
Description: as §1, §2

[9] = target: T1, human cMet on cells (HT29 human …); assay: flow cytometry, QQT*-Cy5.5 at 0-200 nmol/L on HT29 cells, 1 hour at 4 °C
Procedure: We assessed the binding affinity of QQT*-Cy5.5 to HT29 cells by measuring the apparent dissociation constant. HT29 cells were blocked with 0.5% BSA, and then approximately 10⁵ cells were incubated with QQT*-Cy5.5 at concentrations of 0, 10, 25, 50, 75, 100, 125, 150, or 200 nmol/L for 1 hour at 4° C. Cells then were washed 3 times with 1×PBS containing 0.5% BSA to remove unbound peptides before analysis with flow cytometry (FACS Canto; BD Biosciences, San Jose, Calif.). Sample means were used to calculate the equilibrium dissociation constant KD using nonlinear regression analysis with Origin 6.1 data analysis software (OriginLab, Northampton, Mass.). […] I₀ and Iₘₐₓ are the initial and maximum fluorescence intensities, corresponding to no peptide and peptide saturation, respectively, and [X] represents the concentration of the bound peptide.³⁴
Specific binding of QQT*-Cy5.5 to cMet was confirmed by adding unlabeled QQT* to compete for binding. […] An apparent dissociation constant of kd=57 nM was measured for binding by QQT*-Cy5.5 to HT29 cells using flow cytometry, FIG. 3C, and an apparent association time constant of k=0.62 min⁻¹ (1.6 min) was measured for the same cells, supporting rapid binding with topical administration, FIG. 3D.

Molecule	fold change of mean intensity, HT29 (cMet+) versus SW480 (cMet-) cells [1] [fold]	fold reduction of fluorescence intensity with knockdown of cMet (siCL versus sicMet HT29 cells) [2] [fold]	fold change of mean intensity, S114 (cMet+) versus NIH3T3 (cMet-) cells [3] [fold]	fold change of mean intensity, S114 (cMet+) versus NIH3T3 (cMet-) cells [4] [fold]	fold change of fluorescence intensity with knockdown of cMet (siCL versus sicMet HT29 cells) [5] [fold]	fold change of mean intensity, HT29 (cMet+) versus SW480 (cMet-) cells [6] [fold]	binding result [7]	fold fluorescence intensity versus TLQ*-Cy5.5 [8] [fold]	fold reduction of fluorescence intensity with knockdown of cMet (siCL versus sicMet HT29 cells) [5] [fold]	Kd [9] [nM]
primary monoclonal rabbit anti-cMet antibody (Cell Signaling Technology, #8198) detected with AF488-labeled secondary antibody	4.3	4.1	6.7	–	–	–	–	–	–	–
B1	–	–	–	0.72	0.96	0.85	–	–	–	–
B2	–	–	–	2.4	–	2.1	binds	7	2.9	57
